Source: publication PMC5729022

Key:
[1] = target: network soluble collagen type IV from human placenta (human) (UniProt P02462)
[2] = target: insoluble microfibrillar collagen type I from bovine Achilles tendon, Col I(S) (bovine) (UniProt P02453)
[3] = target: insoluble microfibrillar collagen type I from bovine skin, Col I(D) (bovine) (UniProt P02453)
[4] = target: soluble fibrillar collagen type II from bovine tracheal cartilage (bovine) (UniProt P02459)
[5] = target: soluble fibrillar collagen type III from human placenta (human) (UniProt P02461)
Chain of UniProt P02461 (P02461 154-1221): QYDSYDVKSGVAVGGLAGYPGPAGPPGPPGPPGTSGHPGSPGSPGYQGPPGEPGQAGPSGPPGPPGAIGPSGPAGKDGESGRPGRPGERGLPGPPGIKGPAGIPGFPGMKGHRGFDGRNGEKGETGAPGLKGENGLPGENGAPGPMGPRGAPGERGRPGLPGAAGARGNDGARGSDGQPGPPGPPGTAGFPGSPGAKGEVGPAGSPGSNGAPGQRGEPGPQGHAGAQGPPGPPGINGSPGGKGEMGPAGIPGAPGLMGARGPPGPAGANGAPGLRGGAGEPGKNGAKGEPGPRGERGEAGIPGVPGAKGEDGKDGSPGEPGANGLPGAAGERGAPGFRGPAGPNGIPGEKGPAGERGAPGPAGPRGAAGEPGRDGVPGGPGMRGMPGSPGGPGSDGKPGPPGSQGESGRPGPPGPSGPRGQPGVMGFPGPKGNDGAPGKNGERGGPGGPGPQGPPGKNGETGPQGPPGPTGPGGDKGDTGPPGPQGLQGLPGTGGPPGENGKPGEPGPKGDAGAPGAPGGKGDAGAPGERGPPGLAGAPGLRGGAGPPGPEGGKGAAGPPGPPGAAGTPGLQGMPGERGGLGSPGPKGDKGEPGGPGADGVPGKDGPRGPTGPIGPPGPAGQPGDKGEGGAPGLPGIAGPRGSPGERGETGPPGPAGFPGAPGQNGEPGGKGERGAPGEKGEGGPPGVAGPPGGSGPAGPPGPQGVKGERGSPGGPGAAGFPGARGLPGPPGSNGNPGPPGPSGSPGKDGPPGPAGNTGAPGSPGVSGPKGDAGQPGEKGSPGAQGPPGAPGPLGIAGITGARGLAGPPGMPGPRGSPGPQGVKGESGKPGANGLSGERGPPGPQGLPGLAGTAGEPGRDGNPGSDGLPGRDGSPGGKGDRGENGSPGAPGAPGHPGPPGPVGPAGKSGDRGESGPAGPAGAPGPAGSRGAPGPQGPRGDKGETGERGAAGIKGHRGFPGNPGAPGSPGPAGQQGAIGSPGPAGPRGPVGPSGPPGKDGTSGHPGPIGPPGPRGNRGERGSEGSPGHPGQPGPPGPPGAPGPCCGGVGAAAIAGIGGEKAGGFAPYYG

Chain of UniProt P02459 (P02459 182-1241): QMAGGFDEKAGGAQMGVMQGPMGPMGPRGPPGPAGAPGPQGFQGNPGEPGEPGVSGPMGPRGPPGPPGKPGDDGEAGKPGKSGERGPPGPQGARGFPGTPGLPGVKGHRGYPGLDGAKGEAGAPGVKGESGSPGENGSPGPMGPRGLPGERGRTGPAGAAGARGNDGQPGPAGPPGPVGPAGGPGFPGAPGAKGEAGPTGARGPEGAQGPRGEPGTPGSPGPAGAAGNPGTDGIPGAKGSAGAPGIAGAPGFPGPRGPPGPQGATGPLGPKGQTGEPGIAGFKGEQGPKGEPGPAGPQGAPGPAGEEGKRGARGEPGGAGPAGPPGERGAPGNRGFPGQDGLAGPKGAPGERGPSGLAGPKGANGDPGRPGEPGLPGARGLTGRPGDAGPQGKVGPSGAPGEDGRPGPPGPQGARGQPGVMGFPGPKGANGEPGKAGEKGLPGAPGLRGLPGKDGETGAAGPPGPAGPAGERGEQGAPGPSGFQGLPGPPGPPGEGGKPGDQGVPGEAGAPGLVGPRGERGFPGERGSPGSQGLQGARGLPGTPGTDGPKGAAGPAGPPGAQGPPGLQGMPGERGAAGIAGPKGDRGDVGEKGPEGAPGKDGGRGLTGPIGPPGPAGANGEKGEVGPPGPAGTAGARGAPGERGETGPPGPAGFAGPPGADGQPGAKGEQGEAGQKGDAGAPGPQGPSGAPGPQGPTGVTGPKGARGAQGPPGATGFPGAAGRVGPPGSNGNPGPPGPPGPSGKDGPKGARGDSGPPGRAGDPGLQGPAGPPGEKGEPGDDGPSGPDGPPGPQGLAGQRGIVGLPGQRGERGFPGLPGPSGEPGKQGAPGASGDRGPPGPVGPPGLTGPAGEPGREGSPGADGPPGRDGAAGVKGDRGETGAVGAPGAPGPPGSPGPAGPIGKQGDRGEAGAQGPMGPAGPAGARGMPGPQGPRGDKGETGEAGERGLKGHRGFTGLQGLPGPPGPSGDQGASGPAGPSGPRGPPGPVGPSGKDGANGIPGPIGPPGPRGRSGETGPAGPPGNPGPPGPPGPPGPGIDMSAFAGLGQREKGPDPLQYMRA

“recombinant human integrin α1 I domain (GST fusion) (from UniProt P56199 169-363) (domain or fragment)” was tested, and the percent of C2C12 cells transfected with human integrin α1 adhering to the collagen coating, 5 mM Mg2+, LDH assay, 1 × 10^5 cells/ml [1] was 51.9%.
With “recombinant human integrin α2 I domain (GST fusion) (domain or fragment)” the percent of C2C12 cells transfected with human integrin α2 adhering to the collagen coating, 5 mM Mg2+, LDH assay, 1 × 10^5 cells/ml [2] was 44.2%, the percent of HT1080 cells (endogenous human α2β1) adhering to the collagen coating, 5 mM Mg2+, LDH assay, 1 × 10^5 cells/ml [2] was 45.6% and the percent of C2C12 cells transfected with human integrin α2 adhering to the collagen coating, 5 mM Mg2+, LDH assay, 1 × 10^5 cells/ml [3] was 36.5%. It also gave a percent of HT1080 cells (endogenous human α2β1) adhering to the collagen coating, 5 mM Mg2+, LDH assay, 1 × 10^5 cells/ml [3] of 43.6%, a percent of C2C12 cells transfected with human integrin α2 adhering to the collagen coating, 5 mM Mg2+, LDH assay, 1 × 10^5 cells/ml [1] of 16.1% and a percent of HT1080 cells (endogenous human α2β1) adhering to the collagen coating, 5 mM Mg2+, LDH assay, 1 × 10^5 cells/ml [1] of 24.7%. It also gave a percent of C2C12 cells transfected with human integrin α2 adhering to the collagen coating, 5 mM Mg2+, LDH assay, 1 × 10^5 cells/ml [4] of 23.9%, a percent of HT1080 cells (endogenous human α2β1) adhering to the collagen coating, 5 mM Mg2+, LDH assay, 1 × 10^5 cells/ml [4] of 40.3% and a percent of C2C12 cells transfected with human integrin α2 adhering to the collagen coating, 5 mM Mg2+, LDH assay, 1 × 10^5 cells/ml [5] of 18.5%. For the same substance, the percent of HT1080 cells (endogenous human α2β1) adhering to the collagen coating, 5 mM Mg2+, LDH assay, 1 × 10^5 cells/ml [5] was 28.1%.
“recombinant rat integrin α1 I domain (GST fusion) (domain or fragment)” showed a percent of Rugli cells (endogenous rat α1β1) adhering to the collagen coating, 5 mM Mg2+, LDH assay, 1 × 10^5 cells/ml [2] of 22.8%, a percent of Rugli cells (endogenous rat α1β1) adhering to the collagen coating, 5 mM Mg2+, LDH assay, 1 × 10^5 cells/ml [3] of 27% and a percent of Rugli cells (endogenous rat α1β1) adhering to the collagen coating, 5 mM Mg2+, LDH assay, 1 × 10^5 cells/ml [1] of 64.1%. The percent of Rugli cells (endogenous rat α1β1) adhering to the collagen coating, 5 mM Mg2+, LDH assay, 1 × 10^5 cells/ml [4] was 18.9% and the percent of Rugli cells (endogenous rat α1β1) adhering to the collagen coating, 5 mM Mg2+, LDH assay, 1 × 10^5 cells/ml [5] was 55.6%.
